The record followed here is the supplement of paper PMC9170038.

For this series, the system named is MS2 coat protein. The series can be described thus: apparent KD of MS2 coat protein; designed switch direction (-1 OFF switch, 1 ON switch): -1; higher = weaker reporter binding. An outline of the steps: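 The buffer was Tris-HCl pH 7.5 with KCl, MgCl2, BSA, DTT, tRNA and Tween-20. In it, SNAP-549-labelled MS2 coat protein was titrated in doubling steps from 0.7 or 1.5 nM to 3 µM over chip-bound RNA switches transcribed by stalled E. coli RNA polymerase on Illumina chips. Apparent KD is the per-design median over clusters of curve fits to normalised fluorescence.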

[1] abbreviates: Eterna round: R95, input ligand: FMN 200 uM.
The mark [2] stands for this setting: Eterna round: R95, input ligand: microRNA oligo, concentration not stated.
Setting [3] is: Eterna round: R95, input ligand: none.
Setting [4] is: input ligand: microRNA oligo, concentration not stated.

Consider “GAAAAGGUAGGAUAUACGAAAAAAAAGGGUAGAAAAAAAACACAUGAGGAUCACCCAUGUAGAAGGACCAUAAG [salish99_ex2_r3_091] (puzzle: Exclusion 2)”, for which the “apparent KD of MS2 coat protein” value under setting [1] is 63.3 nM, the “apparent KD of MS2 coat protein” value under setting [2] turned out to be 29.9 nM and the “apparent KD of MS2 coat protein” value under setting [3] was determined as 29.2 nM.

“GAAAAGGUAGGAUAUACGAAAAAAAAGGGUAGAAAAAAAACACAUGAGGAUCACCCAUGUAGAAGGACCUAAAG [salish99_ex2_r3_090] (puzzle: Exclusion 2)”: the “apparent KD of MS2 coat protein” value runs as follows: under setting [1], 56.1 nM; under setting [2], 25.7 nM; under setting [3], 24.6 nM.

In the case of “GAAAAGGUAGGAUAUACGAAAAAAAAGGGUAGAAAAAAAUCACAUGAGGAUCACCCAUGUAGAAGGACCAAAAG [salish99_ex2_r3_072] (puzzle: Exclusion 2)”, the “apparent KD of MS2 coat protein” value under setting [1] is 62.3 nM, the “apparent KD of MS2 coat protein” value under setting [2] amounted to 25 nM and the “apparent KD of MS2 coat protein” value under setting [3] worked out at 28.3 nM.

In the case of “GAAAAGGUAGGAUAUACGAAAAAAAAGGGUUGAAAAAAAACACAUGAGGAUCACCCAUGUAGAAGGACCAAAAG [salish99_ex2_r3_080] (puzzle: Exclusion 2)”, the “apparent KD of MS2 coat protein” value is, setting by setting: under setting [1], 140 nM; under setting [2], 19.7 nM; under setting [3], 26 nM.

For “GAAAAGGUAGGAUAUACGAAAAGAAAGGGUAGAAAGAAAACACAUGAGGAUCACCCAUGUAGAAGGACCAAAAG [salish99_ex2_r3_095] (puzzle: Exclusion 2)”, the “apparent KD of MS2 coat protein” value under setting [1] was found to be 37.3 nM, the “apparent KD of MS2 coat protein” value under setting [2] was 14.6 nM and the “apparent KD of MS2 coat protein” value under setting [3] was found to be 26.8 nM.

Turning to “GAAAAGUGAGGAUAUGCUCGAUCCUGGCACCAAGUGAAGUCACUUGAGGAUCACCCAAGUAGAAGGCACAUAAA [Tiederes] (Eterna round: R97, puzzle: Exclusion 2)”, the “apparent KD of MS2 coat protein” value (input ligand: FMN 200 uM) worked out at 206 nM and the “apparent KD of MS2 coat protein” value (input ligand: none) was determined as 55.3 nM.

Turning to “GAAAAUGUGGAGGAUAUCGACUUCGAAAGAAGUCGAGAAGGCCACACAUGAGGAUCACCCAUGUGUUGCUUAUA [Omei Ex6 H7] (Eterna round: R97, puzzle: Exclusion 6)”, the “apparent KD of MS2 coat protein” value runs as follows: (input ligand: FMN 200 uM) 20.7 nM; (input ligand: none) 16 nM.

Take “GAAAAUUGGGCAGGAUAUCUAAUGAAAGAAACCGGAGAAGGGCCGGUGGCAAUUGCAGACAUGAGGAUCACCCAUGUAGUUGCA [Eternabot solution 42] (Eterna round: R96, puzzle: Exclusion NG 1)”: the “apparent KD of MS2 coat protein” value was 13.5 nM (input ligand: FMN 200 uM), 15.2 nM under setting [4] and 14.9 nM (input ligand: none).

As to “GAAAGGUGAGGAUAUACACUGCGGUGUAGUCCUCAUAAAAGACAUGAGGAUCACCCAUGUAGAAGGCACAUAAA [Rirereis] (puzzle: Exclusion 2)”, the “apparent KD of MS2 coat protein” value reads like this: under setting [1], 96 nM; under setting [2], 32.8 nM; under setting [3], 27.5 nM.

“GAACUGAGGCUUUGCUUUAGUCGUACAUGAGGAUCACCCAUGUAGGAUAUGGUAGGCUUUGCUUACCAGAAGGACAGAGUGAUC [JL EXNG3 1.21] (Eterna round: R96, puzzle: Exclusion NG 3)”: the “apparent KD of MS2 coat protein” value (input ligand: FMN 200 uM) was determined as 52.9 nM, the “apparent KD of MS2 coat protein” value under setting [4] turned out to be 192 nM and the “apparent KD of MS2 coat protein” value (input ligand: none) was 195 nM.

On to “GAAGAAGAGAGAAUAGAAAACAUGAGGAUCACCCAUGUUAAGAGAUGAGGGUGUAAUAGGAUUUUUGCUCGUCUUAU (puzzle: Sensor v3, turn-off variant 1)”, for which the “apparent KD of MS2 coat protein” value is, setting by setting: under setting [1], 38.3 nM; under setting [2], 54 nM; under setting [3], 40.5 nM.

For the sequence “GAAGAGACAGGAUAUACAUGAGGAUCACCCAUGUGAGGAGGUUGGAAGCGGAGAAGGUGUAGAAGGGUCAAAGA [JR_Exclu3_Sub023] (puzzle: Exclusion 3)”, the “apparent KD of MS2 coat protein” value under setting [1] was found to be 75.1 nM, the “apparent KD of MS2 coat protein” value under setting [2] is 37.1 nM and the “apparent KD of MS2 coat protein” value under setting [3] turned out to be 80.7 nM.

Consider “GAAGAGACAGGAUAUACAUGAGGAUCACCCAUGUGAGUAUGUUGGAGGCGGAGGAGGUGUAGAAGGGUCAAAGA [JR_Exclu3_Sub019] (puzzle: Exclusion 3)”, for which the “apparent KD of MS2 coat protein” value under setting [2] came to 20.2 nM.

Take “GACCCAGAUGUAAGGAUAUCGAGCUGCGUCAGGUUCGAGAAGGUACAUGAGGAUCACCCAUGUGCAAGCACUCC [BmEX4 B.18] (Eterna round: R97, puzzle: Brourd's mod of Exclusion 4)”: the “apparent KD of MS2 coat protein” value runs as follows: (input ligand: FMN 200 uM) 32.8 nM; (input ligand: none) 17.4 nM.

Regarding “GACCCUAGGGUCAGACCCACAAGCUUUUUGCUCGUUUUAACAUGAGGAUCACCCAUGUCUAGUGGAUCUGAUCGGGC [Geores] (puzzle: Sensor v3, turn-off variant 2)”, the “apparent KD of MS2 coat protein” value is, setting by setting: under setting [1], 18.4 nM; under setting [2], 76.4 nM; under setting [3], 17.2 nM.

Take “GACCGGACGUGGUCUGGUAACAUGAGGAUCACCCAUGUUGGUCUAAGAACAUGCCUUUUGCACGCUCGUCUUAUAUU [JR_SV3TOV1_Sub062] (puzzle: Sensor v3, turn-off variant 1)”: the “apparent KD of MS2 coat protein” value runs as follows: under setting [1], 66.2 nM; under setting [2], 29.6 nM; under setting [3], 80.5 nM.

Consider “GACUAGUGAGGAUAUAUUUGCAGUGUACCUCGGGUGAUCGCACUUGAGGAUCACCCAAGUAGAAGGCGCGAGGG [EX2 #25] (Eterna round: R97, puzzle: Exclusion 2)”, for which the “apparent KD of MS2 coat protein” value runs as follows: (input ligand: FMN 200 uM) 47.7 nM; (input ligand: none) 355 nM.

Take “GACUGACAUGAGGAUCACCCAUGUAAGGAUAUAGGGAGCGUCGCUCCGCAACCCGCGCCUAGAAGGUACAAGGU [EX1 C.20] (Eterna round: R97, puzzle: Exclusion 1)”: the “apparent KD of MS2 coat protein” value by setting is: (input ligand: FMN 200 uM) 18.2 nM; (input ligand: none) 21.2 nM.

Take “GACUGCCGAGGAUAUACAUGAGGAUCACCCAUGUGCUUCAGCAUUUUUUAAUGCAUGGGUAGAAGGCGGUAGUU [LRO-Excl3-14] (puzzle: Exclusion 3)”: the “apparent KD of MS2 coat protein” value under setting [2] was found to be 31.5 nM.

For the sequence “GAGAAAGCAAGCAAGUGAAACAUGAGGAUCACCCAUGUCCUCAUUUGCUCGUCUUAUAAGCUAUGCGAAAGCAUAGC [Mat - Sensor v3 - turn-off var 1 - Eli Mod - D50] (puzzle: Sensor v3, turn-off variant 1)”, the “apparent KD of MS2 coat protein” value worked out at 12.3 nM under setting [1], 101 nM under setting [2] and 11.3 nM under setting [3].

“GAGAAAUUAUAGGAUAUCGAAAGGAUAAUUUAACGAGAAGGAUGAACAUGAGGAUCACCCAUGUGGUAUCAUGG [JL-ex6-3.11] (puzzle: Exclusion 6)”: the “apparent KD of MS2 coat protein” value turned out to be 346 nM under setting [1], 302 nM under setting [2] and 157 nM under setting [3].

In the case of “GAGAAGGUAGGAUAUACGAAUAAAAAGGGUAGAAGAAGAACACAUGAGGAUCACCCAUGUAGAAGGACCAAGAG [Mat - Exclusion 2 - Mod of my Tesla design - D22] (puzzle: Exclusion 2)”, the “apparent KD of MS2 coat protein” value amounted to 44 nM under setting [1], 17.2 nM under setting [2] and 17.6 nM under setting [3].

Take “GAGACAGAAGGAUAUACGUCCGCGAGUGCGAUGCGCUUGGGACAUGAGGAUCACCCAUGUAGAAGGUCUAACCC [Eternabot (L1) Solution 89] (Eterna round: R97, puzzle: Exclusion 2)”: the “apparent KD of MS2 coat protein” value runs as follows: (input ligand: FMN 200 uM) 318 nM; (input ligand: none) 251 nM.
